Measured values: the supplement of paper PMC6757056
± gives the standard deviation of the averaged measurements.

B1: library; a variant is named by its letters at N, in order (parent)
chain: GCUGUCACCGGUGCUUGGUACGUUAUAUUCAGCCGGUCUGAUGAGUCUNNNNNNAGACGAAACAGC

Tests used:
(6R,S)-folinic acid [1] = variants of: B1; assay: FACS-Seq fitted mean relative fluorescence mCherry/BFP without ligand (log10 relative fluorescence); HEK293T overexpressing SLC46A1; higher = higher reporter protein expression; conditions: without (6R,S)-folinic acid; ligand present: no
Method in brief: (§1)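 Lentivirally transduced HEK293T libraries carried an mCherry reporter with the ribozyme switch and an EF1α-BFP marker. Transduced cells were enriched, then incubated with or without ligand for 48 h and sorted into 6 bins by mCherry/BFP. Genomic DNA from each bin was PCR-amplified, barcoded and sequenced on MiSeq. Fluorescence was the fitted normal mean of log10(mCherry/BFP) bin counts, scaled to five spiked-in control ribozymes.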

(6R,S)-folinic acid [2] = variants of: B1; assay: normalized RNA/DNA level without ligand (relative to sTRSVctl = 100) (log10 (% of sTRSVctl)); HEK293T overexpressing SLC46A1; higher = less ribozyme self-cleavage, higher mRNA level; conditions: without (6R,S)-folinic acid; ligand present: no
Method: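 Hammerhead (sTRSV) ribozyme switch libraries with a ligand aptamer grafted on stem I and a randomized N4-6 loop II, cloned into the 3' UTR of mCherry and transiently transfected into HEK293T cells; RNA-Seq 72 h post transfection with ligand added 1 h before transfection; RNA read count / plasmid DNA read count normalized to the non-cleaving sTRSVctl (x100), log10; sequences with >100 DNA reads. FACS-Seq: lentiviral library sorted into 6 bins after 48 h ligand, log-normal fit mean of mCherry/BFP scaled to controls. Printed sequences are partial switch sequences.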

(6R,S)-folinic acid [3] = variants of: B1; assay: FACS-Seq fitted mean relative fluorescence mCherry/BFP with ligand (log10 relative fluorescence); HEK293T overexpressing SLC46A1; ligand concentration (+) FACS-Seq: 6 mM; higher = higher reporter protein expression; conditions: with (6R,S)-folinic acid; ligand present: yes
Method in brief: as §1

(6R,S)-folinic acid [4] = variants of: B1; assay: normalized RNA/DNA level with ligand (relative to sTRSVctl = 100) (log10 (% of sTRSVctl)); HEK293T overexpressing SLC46A1; ligand concentration (+) RNA-Seq: 6 mM; higher = less ribozyme self-cleavage, higher mRNA level; conditions: with (6R,S)-folinic acid; ligand present: yes
Method in brief: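 For each 6-well well, 4 µg of library plasmid encoding mCherry-linked ribozyme switches, or eGFP-linked ones in some ligand experiments, was transfected into HEK293T. Any ligand was added 1 h before transfection, and RNA was extracted with EDTA 72 h after it, then reverse-transcribed, amplified, barcoded and sequenced. RNA level was obtained by dividing RNA reads by DNA reads, normalizing to a spiked-in non-cleaving sequence or to the top sequences, then scaling and log-transforming. The top set was 25 sequences, scaling was ×100 with log10, and ≥100 DNA reads were required.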

| Variant | FACS-Seq fitted mean (log10) ((6R,S)-folinic acid [1]) | normalized RNA/DNA level without ligand (log10) ((6R,S)-folinic acid [2]) | FACS-Seq fitted mean (log10) ((6R,S)-folinic acid [3]) | normalized RNA/DNA level with ligand (log10) ((6R,S)-folinic acid [4]) |
| --- | --- | --- | --- | --- |
| GGGACA | 0.123 ± 0.064 | 1.997 ± 0.016 | 0.248 ± 0.14 | 2 ± 0.063 |
| UGCCGG | 0.22 ± 0.012 | 1.92 ± 0.011 | 0.707 ± 0.05 | 2.006 ± 0.018 |
| GGAUUU | 0.647 ± 0.23 | 2.02 ± 0.034 | 0.596 ± 0.19 | 2.01 ± 0.048 |
| GGAUUC | 0.835 ± 0.03 | 2.045 ± 0.0076 | 0.746 ± 0.041 | 2.021 ± 0.016 |
| AGGAUA | 0.115 ± 0.081 | 1.945 ± 0.0066 | 0.116 ± 0.17 | 2 ± 0.049 |
| GGGAGU | 0.46 ± 0.087 | 1.975 ± 0.0027 | 0.487 ± 0.054 | 2 ± 0.038 |
| GGGAGG | 0.108 ± 0.032 | 2.014 ± 0.004 | 0.269 ± 0.081 | 2.04 ± 0.032 |
| GGGAGC | 0.342 ± 0.098 | 1.831 ± 0.0028 | 0.435 ± 0.029 | 1.96 ± 0.029 |
| AGGAAC | 0.484 ± 0.041 | 2 ± 0.012 | 0.434 ± 0.11 | 2.018 ± 0.02 |
| AGGAAU | 0.338 ± 0.1 | 1.988 ± 0.016 | 0.0683 ± 0.36 | 2 ± 0.029 |
| UGGGCG | 0.142 ± 0.034 | 1.787 ± 0.014 | 0.637 ± 0.097 | 2.009 ± 0.0047 |
| UGGGCC | 0.229 ± 0.0089 | 2.048 ± 0.012 | 0.157 ± 0.022 | 2.03 ± 0.0098 |
| CGGUUA | 0.594 ± 0.087 | 1.9899 ± 0.00027 | 0.531 ± 0.12 | 2.02 ± 0.056 |
| CGCAGC | 0.491 ± 0.09 | 2.01 ± 0.033 | 0.645 ± 0.4 | 2.01 ± 0.031 |
| GGUAAG | 0.539 ± 0.082 | 1.919 ± 0.0032 | 0.424 ± 0.051 | 2 ± 0.036 |
| GGUAAA | 0.462 ± 0.11 | 1.979 ± 0.014 | 0.474 ± 0.38 | 2 ± 0.03 |
| GGUAAU | 0.342 ± 0.044 | 1.992 ± 0.015 | 0.504 ± 0.12 | 2.03 ± 0.043 |
| AGGUGG | 0.777 ± 0.14 | 1.977 ± 0.0086 | 0.549 ± 0.26 | 2.05 ± 0.045 |

| Variant | FACS-Seq fitted mean (log10) ((6R,S)-folinic acid [1]) | normalized RNA/DNA level without ligand (log10) ((6R,S)-folinic acid [2]) | FACS-Seq fitted mean (log10) ((6R,S)-folinic acid [3]) | normalized RNA/DNA level with ligand (log10) ((6R,S)-folinic acid [4]) |
| --- | --- | --- | --- | --- |
| AGGUGA | 0.616 ± 0.086 | 1.964 ± 0.0069 | 0.768 ± 0.25 | 2.03 ± 0.028 |
| AGGUGU | 0.0941 ± 0.074 | 1.954 ± 0.015 | 0.266 ± 0.017 | 2.0099 ± 0.00041 |
| GGCACU | -0.00197 ± 0.025 | 2.08 ± 0.04 | -0.0531 ± 0.17 | 2.02 ± 0.036 |
| GGCACC | 0.275 ± 0.084 | 2.018 ± 0.0066 | -0.0119 ± 0.33 | 2.017 ± 0.0025 |
| UGCAUG | 0.298 ± 0.025 | 1.734 ± 0.0064 | 0.712 ± 0.11 | 1.97 ± 0.026 |
| UGCAUU | 0.0991 ± 0.29 | 1.987 ± 0.01 | -0.057 ± 0.47 | 2.01 ± 0.043 |
| GGCAUA | 0.173 ± 0.12 | 2.032 ± 0.012 | 0.286 ± 0.1 | 2.01 ± 0.027 |
| UGGUGA | 0.399 ± 0.049 | 1.881 ± 0.0069 | 0.443 ± 0.061 | 2.014 ± 0.0098 |
| UGGUGU | 0.386 ± 0.1 | 1.933 ± 0.014 | 0.292 ± 0.034 | 2.01 ± 0.048 |
| UGGUGG | 0.464 ± 0.054 | 1.736 ± 0.014 | 0.742 ± 0.064 | 1.96 ± 0.031 |
| CGGAUG | 0.00208 ± 0.054 | 2 ± 0.024 | -0.0609 ± 0.15 | 2.02 ± 0.043 |
| CGGAUA | 0.0197 ± 0.04 | 1.9689 ± 0.0014 | -0.118 ± 0.034 | 1.98 ± 0.061 |
| UGCUGG | 0.145 ± 0.014 | 1.85 ± 0.025 | 0.325 ± 0.18 | 2.02 ± 0.065 |
| UGCUGA | 0.285 ± 0.21 | 2.02 ± 0.024 | 0.321 ± 0.12 | 2.05 ± 0.043 |
| UGGAGU | 0.504 ± 0.12 | 1.894 ± 0.0062 | 0.658 ± 0.037 | 1.99 ± 0.035 |
| UGGAGG | 0.042 ± 0.039 | 1.641 ± 0.0022 | 0.458 ± 0.14 | 1.96 ± 0.031 |
| UGGAGA | 0.189 ± 0.11 | 1.83 ± 0.026 | 0.388 ± 0.12 | 2.01 ± 0.044 |
| CGCAAC | 0.453 ± 0.13 | 2.027 ± 0.0066 | 0.417 ± 0.14 | 1.99 ± 0.013 |
